Fold MFI elevation, stoichiometry N (eGFP molecules per nanocompartment) and stoichiometry N (tdCD molecules per nanocompartment) data for 3 substances are collected here from paper doi:10.1101/2025.09.11.675605.

Assay [1] concerns the target Human Epidermal Growth Factor Receptor 2 (human (endogenous in SKOV-3)) (UniProt P04626). Description: flow cytometry on cells. (In flow cytometry, cells or beads pass a laser one at a time.)
For assay [2], the target named is encapsulin (MSMEI_5672) from Mycobacterium smegmatis mc^2155 with C-terminal Strep-tag (Mycobacterium smegmatis mc^2155). Description: AF4-MALS.

In the case of “^ZHEREnc{eGFP}: encapsulin nanocompartment with ZHER_(2:342) affibody-decorated shell, loaded with eGFP (complex)”, the fold MFI elevation in assay [1] was 62 fold.
On to “eGFP with C-terminal encapsulin localization sequence”, for which the stoichiometry N (eGFP molecules per nanocompartment) in assay [2] amounted to 17.
In turn, “tandem cytosine deaminase with C-terminal encapsulin localization sequence (enzyme)” came in with a stoichiometry N (tdCD molecules per nanocompartment) in assay [2] of 18.7.
